According to publication PMC6937242, “Characterization and engineering of broadly reactive monoclonal antibody against hepatitis B virus X protein that blocks its interaction with DDB1” (Scientific Reports, 2019):
Where no end group is shown, it is not given here.

B1: mouse monoclonal antibody against HBx (anti-HBx 2A7) (antibody, V domains shown)
VH: QVTLKESGPGILQPSQTLSLTCSFSGFSLSTSGMGVVWIRQPSGKGLEWLAHIWWDDDKYYNTALKSGLTISKDTSKNQVFLKIASVDTADTATYYCARMPYYDYDGGVAYWGQGTLVTVSA
VL: DIVMTQSPASLVVSLGQRATISCRASKSVSTSGYSYMYWYQQKPGQPPKLLIYLASNLESGVPARFSGSGSGTDFTLNIHPVEEEDAATYYCQHSRELPLTFGAGTKLELK
notes: 2A7 VH; 2A7 CH, mapped to mouse IGHG1 (immunoglobulin heavy constant gamma 1); 2A7 VL1; 2A7 CK, κ-type light chain constant region; IgG1 subclass, κ light chain (VL1/CK and VH/CH confirmed by LC-MS/MS); also called anti-HBx mAb 2A7; 2A7 mAb; source: SP2/0 hybridoma cell line, purified; also recovered from lysed Huh-7 or HepG2 cells after delivery with TR16-Tat
B2: recombinant 2A7 antibody (antibody, V domains shown)
VH: QVTLKESGPGILQPSQTLSLTCSFSGFSLSTSGMGVVWIRQPSGKGLEWLAHIWWDDDKYYNTALKSGLTISKDTSKNQVFLKIASVDTADTATYYCARMPYYDYDGGVAYWGQGTLVTVSA
VL: DIVMTQSPASLVVSLGQRATISCRASKSVSTSGYSYMYWYQQKPGQPPKLLIYLASNLESGVPARFSGSGSGTDFTLNIHPVEEEDAATYYCQHSRELPLTFGAGTKLELK
notes: as the VH of m1 (2A7 VH); mouse IgG2a heavy chain constant fragment; as the VL of m1 (2A7 VL1); mouse κ light chain constant fragment; source: Expi293F cells, co-transfected, purified from culture supernatant (Protein A)
B3: Igκ-VHVL(2A7)-Fc (scFv, V domains shown)
VH: QVTLKESGPGILQPSQTLSLTCSFSGFSLSTSGMGVVWIRQPSGKGLEWLAHIWWDDDKYYNTALKSGLTISKDTSKNQVFLKIASVDTADTATYYCARMPYYDYDGGVAYWGQGTLVTVSA
VL: DIVMTQSPASLVVSLGQRATISCRASKSVSTSGYSYMYWYQQKPGQPPKLLIYLASNLESGVPARFSGSGSGTDFTLNIHPVEEEDAATYYCQHSRELPLTFGAGTKLELK
notes: as the VH of m1 (2A7 VH); linker, printed as (GlyGlyGlyGlySer)3; as the VL of m1 (2A7 VL1); also called Igκ-VHVL-Fc; 2A7-derived scFv; source: HEK293T, transfected; secreted into supernatant, or in cell lysate; not shown: Fc (human IgG1), C-terminal, kept

Molecular target: T1, biotinylated BPS HBx peptide a.a. 89–104 (Hepatitis B virus genotype B, isolate …, UniProt P20975, strain, also: biotinylated)
T1 construct: HBx of hepatitis B virus genotype B isolate BPS, a.a; a.a; also called peptide harboring a.a; source: synthetic peptide (GL Biochem)
T1 chain: LPKVLHKRTLGLSAMS
Assay: ELISA; biotinylated 16-mer HBx peptides captured on streptavidin-coated plates at 500 ng/well in PBS; antibody added, 37 °C for 1 h; HRP anti-mouse pAb; OD450
Settings: both partners purified

| Molecule | binding result |
| --- | --- |
| B1 | binds |
| B2 | binds |

These molecules were tested against T2, bacterially expressed BPS-encoded HBx protein (Hepatitis B virus genotype B, isolate …, UniProt P20975, strain) (assay: ELISA; recombinant BPS HBx coated at 100 ng/well in bicarbonate/carbonate buffer pH 9.6; purified antibody added, 37 °C for 1 h; HRP anti-mouse pAb; OD450). Settings: both partners purified.
T2 construct: HBx (X protein) of hepatitis B virus genotype B isolate BPS; also called recombinant HBx protein; BPS HBx (ELISA); source: bacterially expressed, purified under denaturing conditions

| Molecule | binding result |
| --- | --- |
| B1 | binds |

The molecules below were run against mouse monoclonal antibody against HBx (anti-HBx 2A7) (assay: Western blot with densitometry). Settings: HEK293T lysates; 2A7 signal adjusted against anti-FLAG signal, normalized against BPS HBx; parent: 100.

| Molecule | percent of parent |
| --- | --- |
| FLAG-tagged wild type BPS HBx 77-79 (3 Ala) | 97% |
| FLAG-tagged wild type BPS HBx 80-82 (3 Ala) | 450% |
| FLAG-tagged wild type BPS HBx 98-100 (3 Ala) | 140% |
| FLAG-tagged wild type BPS HBx 101-103 (3 Ala) | 296% |
| FLAG-tagged wild type BPS HBx 104-106 (3 Ala) | 187% |
| FLAG-tagged wild type BPS HBx H86A; R87A; N88A | 334% |
| FLAG-tagged wild type BPS HBx H94A | 0% |
| FLAG-tagged wild type BPS HBx K91A | 36% |
| FLAG-tagged wild type BPS HBx K95A | 0% |
| FLAG-tagged wild type BPS HBx K95A; R96A; T97A | 0% |
| FLAG-tagged wild type BPS HBx L89A | 151% |
| FLAG-tagged wild type BPS HBx L89A; P90A; K91A | 36% |
| FLAG-tagged wild type BPS HBx L93A | 25% |
| FLAG-tagged wild type BPS HBx L98A | 90% |
| FLAG-tagged wild type BPS HBx P90A | 7% |
| FLAG-tagged wild type BPS HBx R96A | 81% |
| FLAG-tagged wild type BPS HBx T97A | 99% |
| FLAG-tagged wild type BPS HBx V83A; N84A | 349% |
| FLAG-tagged wild type BPS HBx V92A | 2% |
| FLAG-tagged wild type BPS HBx V92A; L93A; H94A | 0% |

Molecular target: T1, biotinylated BPS HBx peptide a.a. 89–104
Assay: ELISA; biotinylated 16-mer HBx peptides captured on streptavidin-coated plates; secreted Igκ-VHVL-Fc added; HRP anti-human Fc pAb; OD450
Settings: one partner purified

| Molecule | binding result |
| --- | --- |
| B3 | binds |

What follows are molecules tested against T3, FLAG-tagged WT (genotype C isolate) HBx (Hepatitis B virus genotype C, isolate …, UniProt P0C686, strain) (assay: Western blot; lysates of HEK293T cells transfected with FLAG-tagged HBx variants, 48 hours, resolved and blotted; probed with 2A7; anti-FLAG as control; densitometry normalised to anti-FLAG and to BPS HBx). Settings: one partner purified.
T3 construct: 'WT' is here the name of an isolate, not 'wild type'; also called WT HBx; source: HEK293T, transfected, in lysate or in fixed cells; not shown: FLAG, N-terminal, kept

| Molecule | binding result |
| --- | --- |
| B1 | binds |

These molecules were tested against T4, FLAG-tagged wild type BPS HBx (Hepatitis B virus genotype B, isolate …, UniProt P20975, strain) (assay: co-IP; HEK293T co-transfected with Igκ-VHVL-Fc and FLAG-tagged wild type or mutant BPS HBx; lysate; anti-FLAG as capture antibody; blots with anti-hFc and anti-FLAG). Settings: partners not purified.
T4 construct: HBx (X protein) of hepatitis B virus genotype B isolate BPS, 154 a.a; also called FLAG-HBx (wild type); wild-type HBx; source: HEK293T, transfected, in lysate or in fixed cells; HepG2, transfected, in lysate; not shown: FLAG, N-terminal, kept

| Molecule | binding result |
| --- | --- |
| B3 | binds |
